Five molecules from patent publication CN113444176A (WUHAN RENFU INNOVATIVE DRUG R&D CENTER CO LTD; HUMANWELL …, dated 2021) can be followed below.

The target in assay [1] is T1, 重组人NGF蛋白 (recombinant human nerve growth factor) (human, UniProt P01138 122-241).
T1 construct: also called 重组NGF蛋白; 重组NGF抗原
In words: SPR, Biacore 8K, NGF coupled to CM5 chip, antibody as analyte, 1:1 binding model.

For assay [2], the target named is T2, 重组BDNF (脑源性神经营养因子) (Helarctos malayanus (Malayan sun bear) …, UniProt O18753 129-247).
T2 sequence: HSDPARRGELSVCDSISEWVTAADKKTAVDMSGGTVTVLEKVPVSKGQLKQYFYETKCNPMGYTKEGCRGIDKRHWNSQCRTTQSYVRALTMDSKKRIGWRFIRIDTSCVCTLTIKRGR
In words: competition ELISA: coated NGF, antibody preincubated with recombinant BDNF.

The target of assay [3] is T1, 重组人NGF蛋白 (recombinant human nerve …). In words: SPR, Biacore 8K, NGF coupled to CM5 chip, antibody as analyte, 1:1 binding model. This is another data set of the same source.
For another assay, the target named is T3, 重组NT3 (神经营养因子3) (Rattus norvegicus (Rat), UniProt P18280 140-258).
T3 sequence: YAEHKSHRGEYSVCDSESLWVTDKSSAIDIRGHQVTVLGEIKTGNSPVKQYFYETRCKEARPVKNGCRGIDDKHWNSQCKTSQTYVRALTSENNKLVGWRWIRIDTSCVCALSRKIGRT
Briefly: SPR, Biacore 8K, CM5 chip, antibody as analyte.

A further assay has as its target T4, 重组NT4 (神经营养因子4) (Homo sapiens (Human), UniProt P34130 81-210).
T4 sequence: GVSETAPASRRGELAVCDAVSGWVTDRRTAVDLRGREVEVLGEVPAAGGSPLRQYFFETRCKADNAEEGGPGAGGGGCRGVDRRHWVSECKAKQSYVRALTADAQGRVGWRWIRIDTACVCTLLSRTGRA
In words: SPR, Biacore 8K, CM5 chip, antibody as analyte.

The target in assay [4] is T2, 重组BDNF (脑源性神经营养因子). In words: SPR, Biacore 8K, CM5 chip, antibody as analyte.

Where a chain is given by its changes, count along the chain named. In names and notes the source's numbering stands. Like-named read-outs stand apart in the source and are kept apart here.

T1 sequence (P01138 122-241 limits assumed): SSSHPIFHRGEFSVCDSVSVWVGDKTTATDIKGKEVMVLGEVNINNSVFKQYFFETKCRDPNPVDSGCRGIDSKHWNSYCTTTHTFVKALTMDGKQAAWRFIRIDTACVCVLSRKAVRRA

B1: 鼠源抗体G9 (anti-NGF mouse monoclonal antibody G9) (antibody, mouse IgG1, kappa, V domains shown)
VH: EVQLQQSGTVLARPGTSVRMSCKASGYTFTSYWMHWIKQRPGQGLEWIGAIYPGNSDTSYTQKFKGKAKLTAVTSTSTAYMELSSLTNEDSAVYYCTTPYGYDEDWYFNVWGAGTTVTVPS
VL: NIVMTQSPKSMSMSVGERVTLSCKASENVGTYVSWYQQKPEQPPKLLIYGASNRYTGVPDRFTGCGSATDFTLTISSVQAEDLADYHCGQSYSYPLTFGAGTKLELKR
notes: Hybridoma antibody; also called 杂交瘤单抗G9
Consider B1, for which, in assay [1], the Kd is 1.29 nM, the koff came out at 0.000283 s⁻¹ and the kon worked out at 219000 M⁻¹ s⁻¹.

B2: 人源化抗NGF抗体Ab01 (antibody, human IgG4 S228P, kappa, V domains shown)
VH: EVQLVESGGGLVKPGGSLRLSCAASGFTFSRYAMSWVRQAPGKGLEWVSTISSGGSYTYYPDSVKGRFTISRDNAKNSLYLQMNSLRAEDTAVYYCARHGEFYGTTFDVHYFDYWGQGTLVTVSS
VL: AIQLTQSPSSLSASVGDRVTITCRASESVDSYGNSFMHWYQQKPGKAPKLLIYLASNLESGVPSRFSGSGSGTDFTLTISSLQPEDFATYYCQQNNEDPLTFGGGTKVEIKR
notes: Humanised from F3; human IgG4 (S228P) heavy constant region and human kappa constant region; expressed in CHO cells
On to B2, for which the binding result in the assay with 重组BDNF (脑源性神经营养因子) [2] was “no binding”. In assay [3], the Kd is 0.151 nM, the koff was determined as 4.35e-05 s⁻¹ and the kon came to 287000 M⁻¹ s⁻¹. Further, the binding result with 重组NT3 (神经营养因子3) is on record as “no binding”. Also, in the assay with 重组NT4 (神经营养因子4), the binding result is on record as “no binding”.

B3: 人源化抗NGF抗体Ab02 (antibody, human IgG4 S228P, kappa, V domains shown)
VH: B2 VH with K13Q, E46V, S78T
VL: EIVLTQSPATLSLSPGERATLSCRASESVDSYGNSFMHWYQQKPGQAPRLLIYLASNLESGIPDRFSGSGSGTDFTLTISRLEPEDFAVYYCQQNNEDPLTFGGGTKVEIKR
notes: as for B2
Consider B3, for which, in assay [3], the Kd is 0.137 nM, the koff is 4.02e-05 s⁻¹ and the kon is 294000 M⁻¹ s⁻¹. In addition, the binding result with 重组NT3 (神经营养因子3) is “no binding”. In the assay with 重组NT4 (神经营养因子4), the binding result is recorded as “no binding”. Moreover, the binding result with 重组BDNF (脑源性神经营养因子) [4] was “no binding”.

B4: 人源化抗NGF抗体Ab03 (antibody, human IgG4 S228P, kappa, V domains shown)
VH: B2 VH with K13Q
VL: B3 VL with D64A, R81S
notes: as for B2
Take B4: in assay [3], the dissociation constant (Kd) was 0.0918 nM, the koff came out at 2.78e-05 s⁻¹ and the kon came out at 303000 M⁻¹ s⁻¹. Besides, the binding result with 重组NT3 (神经营养因子3) is reported as “no binding”. In addition, the binding result with 重组NT4 (神经营养因子4) is recorded as “no binding”. Further, in the assay with 重组BDNF (脑源性神经营养因子) [4], the binding result is listed as “no binding”.

B5: 鼠源抗体F3 (anti-NGF mouse monoclonal antibody F3) (antibody, mouse IgG1, kappa, V domains shown)
VH: EVMLVESGGDLVKPGGSLKLSCAASGFTFSRYAMSWVRQTPEKRLEWVATISSGGSYTYYPDSVKGRFTISRDNAKNTLYLQMSSLRSEDTAMFYCARHGEFYGTTFDVHYFDYWGQGTTLTVSS
VL: YIVLTQSPASLAVSLGQRATISCRASESVDSYGNSFMHWYQQKPGQPPKLLIYLASNLESGVPARFSGSGSRTDFTLTIDPVEADDAATYYCQQNNEDPLTFGTGTKLELKR
notes: Hybridoma antibody; also called 杂交瘤单抗F3
With B5, in assay [1], the Kd was determined as 0.335 nM, the dissociation rate constant (koff) turned out to be 0.000121 s⁻¹ and the kon turned out to be 363000 M⁻¹ s⁻¹.
